From patent US20250282852A1

Columns and labels:
[1] = biological target: biotinylated oligomeric Aβ1-42 (UniProt P05067); test: Octet biolayer interferometry, biotinylated oligomeric Aβ on streptavidin biosensor, hCD22-His in solution
[2] = biological target: biotinylated oligomeric Aβ1-42 (UniProt P05067); test: Octet 96e (printed as 'SPR system'), biotinylated oligomeric Aβ1-42 on streptavidin biosensor, CD22 extracellular domain at various concentrations in solution

Substance: extracellular domain of CD22 (Sino Biological) (receptor)
- koff [1]: 0.000522 s⁻¹
- kon [1]: 186000 M⁻¹ s⁻¹
- Kd [2]: 2.79 nM
